The data set concerns the molecule itself. In words: crystal structure.

“And” between values parts separate entries of the source, which are not always exact repeats. Equal values may be shown once.

B1: MEF2D_(2-95) (N-terminal residues 2-95 of human MEF2D) (domain or fragment, UniProt Q14814 2-95, looked up)
chain: GRKKIQIQRITDERNRQVTFTKRKFGLMKKAYELSVLCDCEIALIIFNHSNKLFQYASTDMDKVLLKYTEYNEPHESRTNADIIETLRKKGFNG
What is called stoichiometry N is the number of molecules, sites or subunits per partner or assembly. On to B1, for which the “stoichiometry N” value was 2 and 4.

For the origin of these results see article PMC9507012 (Blood, 2022).
